The source of these data is paper PMC3235116.

“And” between values parts separate entries of the source, which are not always exact repeats. Equal entries are not always repeated.

Series [1] addresses wild type Streptococcus pyogenes enolase with a C-terminal deca-histidine tag (Streptococcus pyogenes) (UniProt P69949). Description: AUC; each his-tagged enolase alone in SPR binding buffer (no Mg2+, with EDTA, pH 7.4); octamer to monomers.
Series [2] has the same target. Description: AUC; sedimentation velocity of each purified enolase alone, native (data not shown); octamer.
Series [3] concerns the target canine plasminogen (canine). Description: co-sedimentation; dPgn made to precipitate with reductant (0.2 M DTT) in the presence of native soluble Str enolase; centrifuged, pellets and supernates on SDS-PAGE; initial dPgn:enolase monomer 1:1 or 1:3.
Series [4] addresses canine plasminogen (canine). Description: SPR; dPgn amine-coupled at pH 4.5 to CM4 chip (340 RU); titration with F137L/E363G Str enolase 0-500 nM (2-fold series), 25°C.
Series [5] deals with fluorescently labeled, catalytically inactive derivative of human plasminogen (5'IAF-Pg S741C) (human). Description: fluorescence polarisation; Str enolase first brought to pH 4.5, then diluted into phosphate buffer pH 6.7 (non-native enolase); labelled hPgn 140 nM, Str enolase 0.057 mM, 20°C.
Series [6] deals with Streptococcus pyogenes enolase F137L/E363G with an N-terminal hexa-histidine tag (Streptococcus pyogenes) (UniProt P69949). Description: AUC; each his-tagged enolase alone in SPR binding buffer (no Mg2+, with EDTA, pH 7.4); octamer to monomers.
Series [7] shares this target. Description: AUC; F137L/E363G enolase incubated at pH 4.5 for one hour and dialysed overnight against SPR binding buffer; soluble fraction; octamer to monomers.
Series [8] addresses canine plasminogen (canine). Description: ITC; Str enolase brought to pH 9 (precipitated), dialysed back to pH 6.9, 30% activity left; enolase titrated into dPgn, close to 20°C.
Series [9] addresses Streptococcus pyogenes enolase F137L/E363G with an N-terminal hexa-histidine tag (Streptococcus pyogenes) (UniProt P69949). Description: AUC; sedimentation velocity of each purified enolase alone, native (data not shown); octamer.
Series [10] concerns the target wild type Streptococcus pyogenes enolase with an N-terminal hexa-histidine tag (Streptococcus pyogenes) (UniProt P69949). Description: AUC; each his-tagged enolase alone in SPR binding buffer (no Mg2+, with EDTA, pH 7.4); octamer to monomers.
Series [11] shares this target. Description: AUC; sedimentation velocity of each purified enolase alone, native (data not shown); octamer.
Series [12] concerns P69949. Description: AUC; each his-tagged enolase alone in SPR binding buffer (no Mg2+, with EDTA, pH 7.4); octamer to monomers.
For series [13], the system named is P69949. Description: AUC; F137L/E363G enolase incubated at pH 4.5 for one hour and dialysed overnight against SPR binding buffer; soluble fraction; octamer to monomers.
The target in series [14] is Streptococcus pyogenes enolase F137L/E363G with an N-terminal hexa-histidine tag (Streptococcus pyogenes) (UniProt P69949). Description: co-sedimentation; Str enolase (300 nM) adsorbed to azolectin (phosphatidyl choline) micelles, dPgn 1000 nM, 10 mM potassium phosphate, 100 mM NaCl, 4°C three days, 20 000 rpm 2 h, SDS-PAGE of pellets and supernates.
For series [15] the target is unchanged. Description: SPR; N-terminal His6 F137L/E363G Str enolase captured at neutral pH on Ni-NTA chip (~150 RU); single-cycle titration 15-2000 nM.
Series [16] shares this target. Description: ITC; Str enolase brought to pH 4.5 (precipitated), dialysed to pH 6.9, dissolved in 27% urea, dialysed again at pH 6.9, about 30% specific activity left; enolase titrated with dPgn, close to 20°C.
The target of series [17] is wild type Streptococcus pyogenes enolase with no tag (Streptococcus pyogenes) (UniProt P69949). Description: AUC; sedimentation velocity of each purified enolase alone, native (data not shown); octamer.

In series [1], “wild type Streptococcus pyogenes enolase with a C-terminal deca-histidine tag (from UniProt P69949 1-435) (enzyme)” gave a % octameric of 68%. Moreover, in series [2], the % octameric was greater than 90% and the stoichiometry N was 8.

Take “Streptococcus pyogenes enolase F137L/E363G with an N-terminal hexa-histidine tag (from UniProt P69949 1-435) (enzyme)”: in series [3], the % of the precipitated protein that was Str enolase (initial ratio 1:1) was determined as 12%, the % of the precipitated protein that was Str enolase (initial ratio 1:3) was determined as 25%, the dPgn:enolase ratio in the pellet (initial ratio 1:1) (dPgn per enolase) is 6 and the dPgn:enolase ratio in the pellet (initial ratio 1:3) (dPgn per enolase) came to 3. Also, the half saturation of all the association phases in series [4] is 50 nM. Besides, in series [5], the P (polarization) came out at 0.43. Moreover, the % octameric in series [6] was 57%. Besides, in series [7], the % octameric was 19%. The substance further gave a stoichiometry N (sites per enolase monomer) in series [8] of 0.18. In series [9], this substance displayed a % octameric greater than 90% and a stoichiometry N of 8.

As for “wild type Streptococcus pyogenes enolase with an N-terminal hexa-histidine tag (from UniProt P69949 1-435) (enzyme)”, the % octameric in series [10] was 88%; in series [11], greater than 90%. The stoichiometry N in series [11] is 8.

For “Streptococcus pyogenes enolase F137L/E363G with an N-terminal hexa-histidine tag”, the % monomeric with P69949 [12] is 36%; in the series with P69949 [13], 75% was monomeric.

As for canine plasminogen (natural protein), the amount of dPgn relative to Str enolase that co-sedimented (Str enolase per dPgn (as 1:x)) in series [14] was 1 and 1.2. The stoichiometry N (dPgn per enolase monomer) in series [15] turned out to be 1; in series [16], 0.34.

“wild type Streptococcus pyogenes enolase with an N-terminal hexa-histidine tag” had a % monomeric in the series on P69949 [12] of 5%.

Take “wild type Streptococcus pyogenes enolase with no tag (from UniProt P69949 1-435) (enzyme)”: in series [17], the % octameric is greater than 90% and the stoichiometry N was 8.

In turn, “wild type Streptococcus pyogenes enolase with a C-terminal deca-histidine tag” returned a % monomeric with P69949 [12] of 18%.
